The assay concerns the target Rv0132c–Δ38 protein (Mycobacterium tuberculosis H37Rv) (UniProt P96809). Nature of the assay: SEC.

For “Rv0132c–Δ38 protein (from UniProt P96809 39-360) (domain or fragment)”, the stoichiometry N is 2.
